Experimental findings from US20170008959A1 (AbbVie / Abbott, published 2017) are described below.

The chains are these.
T1: AP-Nogo66 (Nogo-66 with an N-terminal alkaline phosphatase tag) (human, UniProt Q9NQC3 1055-1120)
T1 construct: range 1055-1120; Migrates as a dimer of about 140 kDa in gel chromatography; the AP tag induces the dimerization; also called NgR ligand AP-Nogo-66; not shown: alkaline phosphatase tag encoded by vector pAP-tag5
T1 sequence (looked up): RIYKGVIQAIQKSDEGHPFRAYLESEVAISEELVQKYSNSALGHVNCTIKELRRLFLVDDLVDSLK

B1: AlterCharge1 (peptide)
peptide: FSRIRATHWRVDG
modifications: also: biotinylated, position not given here
notes: Control 13mer with four positive charges
B2: sRAGE 1-331 (recombinant human sRAGE protein) (receptor)
chain: AQNITARIGEPLVLKCKGAPKKPPQRLEWKLNTGRTEAWKVLSPQGGGPWDSVARVLPNGSLFLPAVGIQDEGIFRCQAMNRNGKETKSNYRVRVYQIPGKPEIVDSASELTAGVPNKVGTCVSEGSYPAGTLSWHLDGKPLVPNEKGVSVKEQTRRHPETGLFTLQSELMVTPARGGDPRPTFSCSFSPGLPRHRALRTAPIQPRVWEPVPLEEVQLVVEPEGGAVAPGGTVTLTCEVPAQPSPQIHWMKDGVPLPLPPSPVLILPEIGPQDQGTYSCVATHSSHGPQESRAVSISIIEPGEEGPTAGGTKLGPEQKLISEEDLNSAVDHHHHHH
notes: His-tagged, from HEK 293 line 293/6.1 sRAGE His 6 (vector pcDNA3.1(-) Myc HIS); also called sRAGE-HIS
B3: His-NogoR fusion protein (receptor, human, UniProt Q9BZR6 27-447, looked up)
chain: CPGACVCYNEPKVTTSCPQQGLQAVPVGIPAASQRIFLHGNRISHVPAASFRACRNLTILWLHSNVLARIDAAAFTGLALLEQLDLSDNAQLRSVDPATFHGLGRLHTLHLDRCGLQELGPGLFRGLAALQYLYLQDNALQALPDDTFRDLGNLTHLFLHGNRISSVPERAFRGLHSLDRLLLHQNRVAHVHPHAFRDLGRLMTLYLFANNLSALPTEALAPLRALQYLRLNDNPWVCDCRARPLWAWLQKFRGSSSEVPCSLPQRLAGRDLKRLAANDLQGCAVATGPYHPIWTGRATDEEPLGLPKCCQPDAADKASVLEPGRPASAGNALKGRVPPGDSPPGNGSGPRHINDSPFGTLPGSAEPPLTAVRPEGSEPPGFPTSGPRRRPGCSRKNRTRSHCRLGQAGSGGGGTGDSEGS
notes: Low-glycosylated fraction of about 80 kDa from CHO-K1 cells; also called soluble His-NogoR; NgR-HIS; not shown: Myc/His tag of vector pcDNA4/MycHIS A
B4: N-terminally truncated sRAGE (sRAGE 102-331) (receptor)
chain: MNRNGKETKSNYRVRVYQIPGKPEIVDSASELTAGVPNKVGTCVSEGSYPAGTLSWHLDGKPLVPNEKGVSVKEQTRRHPETGLFTLQSELMVTPARGGDPRPTFSCSFSPGLPRHRALRTAPIQPRVWEPVPLEEVQLVVEPEGGAVAPGGTVTLTCEVPAQPSPQIHWMKDGVPLPLPPSPVLILPEIGPQDQGTYSCVATHSSHGPQESRAVSISIIEPGEEGPTAGARGGPEQKLISEEDLNSAVDHHHHHH
notes: His-tagged, expressed from psecTAG 2A; no longer has a functional V domain

No end group written: not given here.

Test [1] addresses T2, Amyloid Aβ-1-42 oligomer (globulomer), biotinylated (UniProt P05067 672-713, biotinylated (1/5 biotin; position not stated)).
T2 construct: domain: Aβ 1-42; Concentrations are based on Aβ 1-42 monomers; also called Aβ oligomer; Aβ 1-42 oligomers
Kind of test: HTRF competition: peptide preincubated with Aβ 1/5 biotin globulomer 800 nM, then sRAGE 1-331 added; blocked partner sRAGE. In general terms: Time-resolved FRET reads energy transfer from a long-lived donor to a nearby acceptor.

The target in test [2] is T3, sRAGE-6×HIS (AA 23-352, NP_001127) (human, UniProt Q15109 23-331).
T3 construct: range 23-352; Printed as a fusion protein with limits 23-352 on NP_001127; also called human sRAGE-6×HIS; RAGE receptor; not shown: 6×HIS tag
Kind of test: AlphaScreen, biotinylated peptide and sRAGE-6×HIS. Here is the method:
The entire homogeneous assay was carried out in 25 mM HEPES, 100 mM NaCl of pH 7.4 and 0.1% BSA in a volume of 20 μl.
The individual components were brought together in a defined time sequence. […] The various amounts of peptide were then added in order, after a further 30 minutes, to add the donor beads. After a further 60 minutes, the fluorescence was measured in the AlphaQuest instrument from Perkin-Elmer with a time lag of one second. Each measured point was determined as triplicate. The analysis and graphical workup of the results took place with the GraphPrism 4.0 software package.
In general terms: Bead proximity is the source of the signal in Alpha formats.

Test [3] concerns the target T3, sRAGE-6×HIS (AA 23-352, NP_001127). Put plainly: AlphaScreen, biotinylated peptide on streptavidin donor beads, sRAGE-6×HIS 2.5 ng/µl on anti-HIS acceptor beads. As to the method:
The assay was carried out by the manufacturer's protocol in 25 mM HEPES, 100 mM NaCl of pH 7.4 and 0.1% BSA in a volume of 20 μl.
The individual components were brought together in a defined time sequence. […] The various amounts of peptide were then added in order, after a further 30 minutes, to add the donor beads. After a further 60 minutes, the fluorescence was measured in the AlphaQuest instrument from Perkin-Elmer with a time lag of one second. Each measured point was determined as triplicate. The evaluation and graphical workup of the results took place with the GraphPrism 4.0 software package.

For test [4], the target named is B3. Put plainly: competition of AP-Nogo66 (0.1 nM) binding to coated His-NogoR. As to the method: (§1) This was followed by a blocking step for 1 hour with 2% strength bovine serum albumin (BSA) in Tris-HCl, pH 7.2, at room temperature. […] These stock solutions were then diluted three-fold.
(§2) After each incubation step, the plates were washed with washing buffer (10 mM Tris-HCl, pH 7.2 and 0.05% Tween20).

Test [5] concerns the target T2, Amyloid Aβ-1-42 oligomer (globulomer), …. Put plainly: HTRF direct binding: Aβ 1/5 biotin globulomer titrated on His-tagged sRAGE; anti-6HIS cryptate and streptavidin XL-665.
Protocol: After addition of 4 μl of a 2M KF stock solution, the complete mixture was measured in the BMG Pherastar fluorescence measuring instrument (BMG Labtech GmbH, Offenburg, Germany) in HTRF mode. For the background curve, measurements were used with in each case only the Anti6HIS cryptates and streptavidin XL solutions. The calculated % DeltaF values were transferred into GraphPad Prism 4 (GraphPad Software, San Diego, USA) and evaluated.
Test [6] addresses T1, AP-Nogo66 (Nogo-66 with an N-terminal …). Put plainly: competition of AP-Nogo66 (0.1 nM) binding to coated His-NogoR. Here is the method: as §1, §2

As a reminder, the EC50 is the concentration at which the effect is half-maximal. Read a high EC50 as a need for much substance. The term EC50 (read off the curve) denotes the concentration at which the effect is half-maximal. High values mean weaker potency, low ones greater potency. As usually defined, the IC50 is the midpoint of a concentration-inhibition curve. Higher therefore signals a need for much substance.

On to TLQSELMVTPARGGDPRPTFSCSFSPGLPR (Synthetic 30mer) [AGER-CDP peptide 6], for which the binding result in test [1] was “binds”. With CKGAPKKPPQRLE (also: biotinylated, position not given here (AlphaScreen assays only), also called Nterm 13) [NtermR13], in test [2], the concentration for a half-maximal effect (EC50) is 66 nM. With B1, in test [3], the “EC50 (read off the curve)” value was approximately 50 nM. In test [4], QNITARIGEPLVLKCKGAPKKPPQRLEWKLN (also: biotin label in some assays, position not given here, also called Nterm 31; Nterm31) [NtermR31] yielded an IC50 of 50 nM. Regarding B2, in test [5], the binding result is “binds”. For the molecule LPRHRALRTAPIQPRVWEPVPLEEVQLVVE (Synthetic 30mer) [AGER-CDP peptide 7], the “IC50 (read off the curve)” value in test [1] was approximately 4000 nM. Take B3: the 50% inhibitory concentration (IC50) in test [6] came to 2 nM. As for B4, the binding result in test [5] is given as “binds”.
